{"source": "paper PMC3600519", "about": "“Acute toxicity of vipoxin and its components: is the acidic component an “inhibitor” of PLA2 toxicity?” (Interdisciplinary Toxicology, 2012)", "binders": {"B1": {"name": "vipoxin's acidic component (natural protein)", "chain": "NLFQFGDMILQKTGKEAVHSYAIYGCYCGWGGQGRAQDATDRCCFAQDCCYGRVNDCNPKTATYTYSFENGDIVCGDNDLCLRAVCECDRAAAICLGENVNTYDKNYEYYSISHCTEESEQC"}}, "biological_target": "T1, vipoxin basic and toxic phospholipase A2 subunit (Vipera ammodytes meridionalis, UniProt P14420 1-122)", "T1 sequence": "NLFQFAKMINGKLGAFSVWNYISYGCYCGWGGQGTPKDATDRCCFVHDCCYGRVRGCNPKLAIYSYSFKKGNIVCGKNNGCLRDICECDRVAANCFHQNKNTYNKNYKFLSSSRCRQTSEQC", "assay": "cell-based or functional assay"}
{"binder": "B1", "values": [{"measurement": "residual PLA2 enzyme activity (NOBA substrate) of reconstituted complex PLA2 + VAC (1:1 molar ratio), pre-incubation 1 min to 24 h (100, 120, 115, 114, 114, 113, 108, 78 %)", "value": 120, "unit": "%"}]}
